Reference: paper PMC2690590, “Functional recombinant MHC class II molecules and high-throughput peptide-binding assays” (Immunome Research, 2009)
pEC50, pIC50, pKd: −log10 of the molar value.

Columns and labels:
[1] = target: ^125I labeled (Y)HA306–318 (influenza); test: radioligand binding
[2] = target: DP401: DPA1*0103/DPB1*0401 (human); test: AlphaScreen or HTRF
[3] = target: DR1GrpE: DR1 α chain 1–181 and β chain 1–190 fused C-terminally to GrpE, not biotinylated (human); test: AlphaScreen or HTRF
[4] = target: DR2a (DRA*0101/DRB5*0101) with non-biotinylated β chain, competitive LOCI assay (human); test: AlphaScreen or HTRF
[5] = target: DR2a (DRA*0101/DRB5*0101), biotinylated, direct LOCI assay at pH 6 (human); test: AlphaScreen or HTRF
[6] = target: DR4 (DRA*0101/DRB1*0401), biotinylated, LOCI assay (human); test: AlphaScreen or HTRF
[7] = target: DRB1*0813: DRA*0101/DRB1*0813 (human); test: AlphaScreen or HTRF
[8] = target: DRB3*0301: DRA*0101/DRB3*0301 (human); test: AlphaScreen or HTRF
[9] = target: I-E^d (mouse MHC class II) (mouse) (UniProt P01904); test: AlphaScreen or HTRF

| Substance | pEC50 [1] | pKd [2] | pIC50 [3] | pIC50 [4] | pKd [5] | pKd [6] | pKd [7] | pKd [8] | pKd [9] |
| --- | --- | --- | --- | --- | --- | --- | --- | --- | --- |
| DR1: DRA*0101(1–191)/DRB1*0101(1–198) (complex) | 7.70 | – | – | – | – | – | – | – | – |
| 6xH Influenza A (PR8) HA 109–119 peptide … | – | 9.00 | 6.49 | 7.64 | 8.05 | 5.73 | 6.74 | 5.82 | 6.01 |
